Experimental data as given in patent US20160053258.

How the values were obtained:
[1] = target: T1, 6×HIS-LIN28A (1-124), Q9H9Z2
T1 chain: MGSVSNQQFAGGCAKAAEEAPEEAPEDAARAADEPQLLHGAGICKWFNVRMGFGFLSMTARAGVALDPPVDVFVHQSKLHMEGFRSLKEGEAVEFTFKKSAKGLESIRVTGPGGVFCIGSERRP

[2] = target: T2, 6×HIS-LIN28A (125-209), Q9H9Z2
T2 chain: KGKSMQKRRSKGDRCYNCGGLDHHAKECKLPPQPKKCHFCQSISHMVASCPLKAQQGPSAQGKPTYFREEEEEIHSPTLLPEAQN

[3] = target: T3, 6×HIS-LIN28A (157-209), Q9H9Z2
T3 chain: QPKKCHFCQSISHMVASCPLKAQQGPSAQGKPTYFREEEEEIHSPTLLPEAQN

[4] = target: T4, 6×HIS-LIN28A (125-156), Q9H9Z2
T4 chain: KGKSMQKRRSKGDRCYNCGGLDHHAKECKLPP

[5] = target: T5, 6×HIS-LIN28A-K135R, Q9H9Z2
T5 chain: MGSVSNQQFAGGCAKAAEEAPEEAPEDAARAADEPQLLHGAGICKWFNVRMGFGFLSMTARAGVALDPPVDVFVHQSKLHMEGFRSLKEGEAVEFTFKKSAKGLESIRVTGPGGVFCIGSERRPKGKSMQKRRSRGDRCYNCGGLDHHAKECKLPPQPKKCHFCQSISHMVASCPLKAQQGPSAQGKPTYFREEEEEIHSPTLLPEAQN

[6] = target: T6, 6×HIS-labeled human LIN28A (full-length), Q9H9Z2
T6 chain: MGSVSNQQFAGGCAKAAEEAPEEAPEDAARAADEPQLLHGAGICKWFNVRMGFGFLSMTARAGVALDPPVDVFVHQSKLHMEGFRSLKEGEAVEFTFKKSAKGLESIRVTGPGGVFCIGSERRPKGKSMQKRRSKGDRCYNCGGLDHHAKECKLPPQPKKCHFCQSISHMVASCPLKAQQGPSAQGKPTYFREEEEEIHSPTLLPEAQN

[7] = target: T7, full-length 6×HIS-LIN28B, Q6ZN17
T7 chain: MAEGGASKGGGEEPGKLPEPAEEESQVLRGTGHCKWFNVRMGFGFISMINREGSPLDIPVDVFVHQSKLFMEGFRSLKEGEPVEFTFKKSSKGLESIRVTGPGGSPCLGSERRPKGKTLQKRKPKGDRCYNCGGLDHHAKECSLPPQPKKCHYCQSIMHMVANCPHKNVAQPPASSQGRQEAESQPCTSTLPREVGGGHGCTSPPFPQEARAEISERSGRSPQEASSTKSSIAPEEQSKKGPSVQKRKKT

B1: recombinant full-length SET7/9 expressed in bacteria (protein)
chain: MDSDDEMVEEAVEGHLDDDGLPHGFCTVTYSSTDRFEGNFVHGEKNGRGKFFFFDGSTLEGYYVDDALQGQGVYTYEDGGVLQGTYVDGELNGPAQEYDTDGRLIFKGQYKDNIRHGVCWIYYPDGGSLVGEVNEDGEMTGEKIAYVYPDERTALYGKFIDGEMIEGKLATLMSTEEGRPHFELMPGNSVYHFDKSTSSCISTNALLPDPYESERVYVAESLISSAGEGLFSKVAVGPNTVMSFYNGVRITHQEVDSRDWALNGNTLSLDEETVIDVPEPYNHVSKYCASLGHKANHSFTPNCIYDMFVHPRFGPIKCIRTLRAVEADEELTVAYGYDHSPPGKSGPEAPEWYQVELKAFQATQQK
- methylation (in vitro methyl transferase assay) [1]: LIN28A (1-124) and (157-209) without lysine 135 were not methylated
- methylation (in vitro methyl transferase assay) [2]: only LIN28A (125-209) and (125-156) having lysine 135 among 4 fragments were methylated by SET7/9
- methylation (in vitro methyl transferase assay) [3]: LIN28A (1-124) and (157-209) without lysine 135 were not methylated
- methylation (in vitro methyl transferase assay) [4]: only LIN28A (125-209) and (125-156) having lysine 135 among 4 fragments were methylated by SET7/9
- methylation (in vitro methyl transferase assay) [5]: a methylation reaction by SET7/9 was completely removed in K135 mutant
- enzyme activity (in vitro methyltransferase assay with [3H] SAM) [6]: all HMTases except for SET7/9 did not show enzyme activity with respect to LIN28A
- methylation (in vitro methyltransferase assay with [3H] SAM) [6]: LIN28A was methylated by SET7/9 in vitro
- methylation (in vitro methyl transferase analysis) [7]: LIN28B was not methylated by SET7/9
